PMC3861647

Molecular target: MBP-RU678 (human)
Assay: ITC; MicroCal ITC200, 25 °C, HBS (10 mM HEPES, 150 mM NaCl, pH 7.4); cell: 50 μM MBP-RU678; syringe: 0.5 mM Srr1-BR or Srr2-BR; single binding mode

| Substance | Kd [µM] | stoichiometry N |
| --- | --- | --- |
| Srr1-BR (untagged recombinant binding region of Srr1) (domain or fragment) | 69 | 1 |
| Srr2-BR (untagged recombinant binding region of Srr2) (domain or fragment) | 12 | 1 |
